Measurements from US7659073 (HYBRITECH, dated 2010).
Each block holds one binder with its values, some of them ahead of it.

Legend:
[1] = target: T1, α1-antichymotrypsin (ACT) (UniProt P01011 24-423); test: incubation with ACT, HIC-HPLC profile
T1 sequence (looked up): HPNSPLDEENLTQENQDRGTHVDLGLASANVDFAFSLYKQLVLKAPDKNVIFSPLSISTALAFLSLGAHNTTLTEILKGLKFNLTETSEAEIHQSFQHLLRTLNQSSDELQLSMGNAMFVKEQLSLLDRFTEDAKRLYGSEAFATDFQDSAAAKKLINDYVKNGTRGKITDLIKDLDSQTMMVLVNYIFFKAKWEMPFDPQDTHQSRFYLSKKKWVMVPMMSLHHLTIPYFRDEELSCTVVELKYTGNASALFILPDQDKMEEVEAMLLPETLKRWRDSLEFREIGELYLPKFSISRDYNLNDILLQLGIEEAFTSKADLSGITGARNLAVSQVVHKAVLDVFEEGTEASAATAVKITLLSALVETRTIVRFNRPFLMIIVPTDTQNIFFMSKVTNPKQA

[2] = target: T1, α1-antichymotrypsin (ACT); test: incubation with ACT for two hours at 37° C., HIC-HPLC profile
Procedure: High performance hydrophobic interaction chromatography (HIC-HPLC) was performed using a polypropylaspartamide column (PolyLC, distributed by Western Analytical, Temecula, Calif.). The column was 4.6×250 mm in length with a 1000 Å pore size. Samples were applied in 1.5 M ammonium sulfate and eluted with a gradient: Buffer A: 1.2 M sodium sulfate, 25 mM sodium phosphate, pH 6.3, and Buffer B: 50 mM sodium phosphate, 5% v/v 2-propanol. The gradient was […], 1 min, 30-80% B, 12 min, then isocratic at 80% B for 2 min before equilibration in Buffer A. High sensitivity peak detection was obtained with a Varian Model 9070 scanning fluorescence detector using an excitation of 232 nm and emission of 334 nm to detect the tryptophan residues in protein.
To confirm that the pro forms of PSA are not reactive with ACT, a mixture of purified mature PSA, [−4]pPSA and [−7, −5]pPSA, were incubated with ACT. […] Only the mature PSA forms an ACT complex.

- binding result [1]: no binding (tested: 4× excess of ACT)
B1: [-2]pPSA (enzyme)
chain: not shown
notes: It is mature PSA preceded by the leader SR; also called [-2]proPSA

- binding result [1]: no binding (tested: 4× excess of ACT)
B2: [-5]pPSA (enzyme)
chain: not shown
notes: Not resolved from [-7]pPSA by HIC-HPLC; tested as an about equal mixture with [-7]pPSA; also called [-5]proPSA; part of the [-5/-7]pPSA peak

- binding result [1]: no binding (tested: 4× excess of ACT)
B3: [-4]pPSA (enzyme)
chain: not shown
notes: Recombinant from AV12 cells; also found in pooled prostate cancer serum; also called [-4]proPSA

- binding result [2]: no binding
B4: [-7]pPSA (enzyme)
chain: not shown
notes: The purified peak holds about equal levels of [-7]pPSA and [-5]pPSA, which are not resolved from each other; also called [-7]proPSA; full length [-7]pPSA
